How the values were obtained:
purified protein [1] = substrate: CC1CS(=O)(=O)CCN1/N=C/c1ccc([N+](=O)[O-])o1; assay: purified protein; assay type: biochemical, Trypanosoma cruzi; conditions: 100 μM NADH fixed
purified protein [2] = substrate: O=C(Cn1ccnc1[N+](=O)[O-])NCc1ccccc1; assay: purified protein; assay type: biochemical, Trypanosoma cruzi; conditions: 100 μM NADH fixed; benznidazole 10–100 μM

B1: TcNTR (61S, catalytic domain) (Trypanosoma cruzi strain CL Brener) (protein)
chain: LDAMKRVVHERRSCKRFDPTKSIDLDVVSDLLAMTVRAPTALNLQPWVAVVIHEEEQRETLSRAALGQPQPRDAPVTVVFAGDMEPESNAPAALEMGLESGYYHSLYGAAYLRHAYYLLHGGPCEVMSHVKAIVSAWYSESTGNAMLSVPRNKQAYAWKQVMIPATTFLYLATAAGFDTAILEGFDEAQVRRVAGLPPRFTVPVIISVGHGAKNGFHSVRSPRFPTKHLVRWGKF
B1 gave a Km (purified protein [1]) of 15.5 ± 3.5 µM and a Km (purified protein [2]) of 28.0 ± 2.7 µM.
